This note sets out measurements from patent US20240101645A1 (HENRY M JACKSON FOUNDATION FOR THE ADVANCEMENT OF MILITARY …, published 2024).

To fix the notation:
T1: HCoV-229E spike antigens (bead panel) (HCoV-229E, UniProt P15423 16-1115)
T1 sequence: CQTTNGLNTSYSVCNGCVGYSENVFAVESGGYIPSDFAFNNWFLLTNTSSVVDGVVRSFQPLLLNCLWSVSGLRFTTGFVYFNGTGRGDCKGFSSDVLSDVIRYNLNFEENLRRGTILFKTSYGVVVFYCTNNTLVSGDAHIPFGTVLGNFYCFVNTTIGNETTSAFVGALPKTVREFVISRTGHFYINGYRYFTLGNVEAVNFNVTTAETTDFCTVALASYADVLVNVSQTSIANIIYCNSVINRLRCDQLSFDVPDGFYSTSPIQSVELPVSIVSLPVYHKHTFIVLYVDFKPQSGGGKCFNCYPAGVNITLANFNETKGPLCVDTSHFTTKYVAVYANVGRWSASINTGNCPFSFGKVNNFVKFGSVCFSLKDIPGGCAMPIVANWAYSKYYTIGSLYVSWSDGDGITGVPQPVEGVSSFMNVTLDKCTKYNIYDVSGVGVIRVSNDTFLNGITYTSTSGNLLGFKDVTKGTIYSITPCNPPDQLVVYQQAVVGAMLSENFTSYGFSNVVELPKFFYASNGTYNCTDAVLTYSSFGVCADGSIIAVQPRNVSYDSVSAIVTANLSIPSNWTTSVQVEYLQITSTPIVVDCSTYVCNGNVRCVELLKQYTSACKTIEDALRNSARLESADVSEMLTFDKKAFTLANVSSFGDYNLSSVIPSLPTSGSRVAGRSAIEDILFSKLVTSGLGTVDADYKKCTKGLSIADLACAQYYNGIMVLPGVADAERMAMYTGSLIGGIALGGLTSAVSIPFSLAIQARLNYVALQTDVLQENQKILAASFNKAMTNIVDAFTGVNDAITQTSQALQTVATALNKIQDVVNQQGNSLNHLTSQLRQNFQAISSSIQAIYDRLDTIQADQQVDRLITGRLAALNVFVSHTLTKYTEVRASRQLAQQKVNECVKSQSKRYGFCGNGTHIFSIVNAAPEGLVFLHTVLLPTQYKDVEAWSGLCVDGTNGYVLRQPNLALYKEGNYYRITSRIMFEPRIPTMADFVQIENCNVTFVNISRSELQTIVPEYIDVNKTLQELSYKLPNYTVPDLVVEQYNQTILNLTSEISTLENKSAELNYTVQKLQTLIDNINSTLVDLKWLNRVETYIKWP

T2: HCoV-OC43 spike antigens (bead panel) (HCoV-OC43, UniProt P36334 14-1297)
T2 sequence: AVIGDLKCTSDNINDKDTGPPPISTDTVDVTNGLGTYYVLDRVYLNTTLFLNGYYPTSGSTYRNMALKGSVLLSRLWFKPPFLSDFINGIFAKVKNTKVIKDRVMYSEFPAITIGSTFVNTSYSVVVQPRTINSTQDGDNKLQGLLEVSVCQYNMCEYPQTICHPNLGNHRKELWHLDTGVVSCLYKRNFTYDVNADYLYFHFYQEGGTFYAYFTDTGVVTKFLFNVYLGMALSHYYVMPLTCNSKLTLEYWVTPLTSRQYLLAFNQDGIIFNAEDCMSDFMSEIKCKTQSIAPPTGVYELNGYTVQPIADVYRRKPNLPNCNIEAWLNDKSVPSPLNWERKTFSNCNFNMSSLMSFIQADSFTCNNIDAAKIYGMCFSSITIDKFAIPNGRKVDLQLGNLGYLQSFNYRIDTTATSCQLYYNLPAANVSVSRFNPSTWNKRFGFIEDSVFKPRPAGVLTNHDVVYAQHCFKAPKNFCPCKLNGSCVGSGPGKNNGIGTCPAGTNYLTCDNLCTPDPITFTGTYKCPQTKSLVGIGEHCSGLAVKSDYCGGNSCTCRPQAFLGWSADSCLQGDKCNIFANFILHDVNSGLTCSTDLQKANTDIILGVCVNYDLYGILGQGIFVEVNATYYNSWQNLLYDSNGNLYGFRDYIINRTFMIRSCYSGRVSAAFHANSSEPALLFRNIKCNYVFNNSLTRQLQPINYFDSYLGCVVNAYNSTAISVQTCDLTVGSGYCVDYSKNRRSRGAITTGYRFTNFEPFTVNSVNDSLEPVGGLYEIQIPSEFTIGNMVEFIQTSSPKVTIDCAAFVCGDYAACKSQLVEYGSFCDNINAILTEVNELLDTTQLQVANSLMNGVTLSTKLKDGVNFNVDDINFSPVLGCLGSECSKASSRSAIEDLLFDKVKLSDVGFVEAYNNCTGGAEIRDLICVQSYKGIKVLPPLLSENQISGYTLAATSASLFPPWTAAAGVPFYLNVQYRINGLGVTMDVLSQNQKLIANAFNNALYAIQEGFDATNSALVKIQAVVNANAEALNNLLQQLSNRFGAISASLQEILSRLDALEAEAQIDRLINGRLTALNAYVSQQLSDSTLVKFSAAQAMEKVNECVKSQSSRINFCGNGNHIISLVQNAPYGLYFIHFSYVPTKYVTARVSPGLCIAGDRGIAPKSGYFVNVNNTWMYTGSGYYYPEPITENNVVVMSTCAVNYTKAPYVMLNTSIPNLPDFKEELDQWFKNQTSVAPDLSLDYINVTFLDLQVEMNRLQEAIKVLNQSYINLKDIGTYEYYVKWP

B1: COV_2028 (antibody, V domains shown)
VH: QVQLQESGPGLVKPSGTLSLTCVVSGGSISSSNWWSWVRQPPGKGLEWIGEIYHSGSTNYNPSLKSRVTISVDKSKNQFSLRLTSVTAADTAVYYCARGWNYDYWGQGTLVTVSS
VL: QSALTQPASVSGSPGQSITIACTGTSSDVGSYNLVSWYQQHPGKAPKLMIYEVSKRPSGLSNRFSGSKSGNTASLTISGLQAEDEADYYCYSYAGSSTWVFGGGTKLTVL
notes: human IgG1
B2: COV_2025 (antibody, V domains shown)
VH: QVHLVQSGAEVKKPGASVKVSCKVSGYTLVELSVHWVRQAPAKGLEWIGGFDPEDGETIYAQKFQGRVTMTEDTSTDTAYMELTNLRSEDTAVYYCVTSQPFVSPNWFDPWGQGTLVTVSS
VL: QSALTQPASVSGSPGQSITISCTGTSRDVGAYNYVSWYQQHPGKAPKLMIYEVTTRPSGVSNRFSGSKSGNTASLTISGLQAEDEADYYCSSYTGSRTLVFGTGTKVTVL
notes: human IgG1
B3: COV_2039 (antibody, V domains shown)
VH: QVQLVQSGAEVKKPGASVKVSCKVSGYMLIELSMHWVRQAPGKGLEWMGGFDPEDAETIYAQEFQGRVTMTEDTSTDTAYMELSSLRSEDTAVYYCTTGPAVTNRPADYWGPGTLVTVSS
VL: QSVLTQPPSVSGAPGQRVTISCTGSSSNIGASYDVHWYQQLPGTAPKLLIYANSNRPSGVPDRFSGSKSGTSASLAITGLQAEDEADYYCQSYDSSLSYSVVFGGGTKLTVL
notes: human IgG1
B4: COV_3077 (antibody, V domains shown)
VH: QVQLQESGPGLVKPSETLSLTCAVSGYSISSGYYWGWIRQPPGKGLEWIGSIYHSGSTYYNPSLKSRVTISVDTSKNQFSLKLSSVTAADTAVYYCARALYDAFDIWGQGTMVTVSS
VL: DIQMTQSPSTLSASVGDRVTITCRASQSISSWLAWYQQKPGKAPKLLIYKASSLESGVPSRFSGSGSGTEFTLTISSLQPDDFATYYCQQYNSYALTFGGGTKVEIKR
notes: human IgG1
B5: COV_2037 (antibody, V domains shown)
VH: QVQLVQSGAEVKKPGASVKVSCKVSGYTLTELSMHWVRQAPGKGLEWMGGFDPEDAETIYAQKFQGRVTMTEDTSTDTAYMELSSLRSEDTAVYYCATAGAITGTPTNYSYYYGMDFWGQGTTVTVSS
VL: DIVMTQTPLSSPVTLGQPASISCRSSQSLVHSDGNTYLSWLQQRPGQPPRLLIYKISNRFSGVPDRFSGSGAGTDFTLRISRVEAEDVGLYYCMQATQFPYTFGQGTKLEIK
notes: human IgG1
B6: COV_2174 (antibody, V domains shown)
VH: EVQLAESGGGLVKPGGSLRLSCAASGFTFSDYYMSWIRQAPGKGLEWVSYISSSGSTIYYADSVKGRFTISRDNAKNSLYLQMNSLRAEDTAVYYCARDWSVVVVPAAPAVDVWGQGTTVTVSS
VL: DIQMTQSPSSLSASVGDRVTITCRASQGISNYLAWFQQKPGKAPKSLIYAASSLQSGVPSKFSGSGSGTDFTLTISSLQPEDFATYYCQQYNSYPLTFGGGTKVEIKR
notes: human IgG1
B7: COV_2014 (antibody, V domains shown)
VH: QVQLVQSGAEVKKPGASVKVSCKVSGYTLTELSMHWVRQAPGKGLEWMGGFDPEDGETIYAQKFQGRVTMTEDTSTDTAYMELSSLRSEDTAVYYCATGKINYYDSSGYYGTFDYWGQGTLVTVSS
VL: AIQLTQSPSSLSASVGDRVTITCRASQGISSYLAWYQQKPGKAPKLLIYAASTLQSGVPSRFSGSGSGTDFTLTISSLQPEDFATYYCQQLNSYHLTFGQGTRLEIK
notes: human IgG1
B8: COV_2057 (antibody, V domains shown)
VH: EVQLVQSGAEVKKPGESLKISCKGSGYSFISYWIAWVRQMPGKGLEWMGIIYPGDSDTTYSPSFQGQVTISADKSISTAYLQWSSLKASDTAIYYCARLLYYSDSSPLDSWGQGTLVTVSS
VL: DIQMTQSPSSLSASVGDRVTITCRASQSISTYLNWYQQKPGKAPNLLIYAASSLQSGVPSRFSGSGSGTDFTLTISSLQPEDFATYYCQQSHSTPRTFGPGTKVDIK
notes: human IgG1
B9: COV_2027 (antibody, V domains shown)
VH: EVQLVESGGGLIQPGGSLRLSCAASGFSVSTNYMSWVRQAPGKGLEWVSIIYSGGGTYYADSVKGRFTISRDTSENTLYLQMNSLRAEDTAVYYCASFLVGATGQPWYWGQGTLVTVSS
VL: not shown
notes: human IgG1
B10: COV_2035 (antibody, V domains shown)
VH: QVQLVQSGAEVKKPGASVKVSCKVSGYTLPELSIHWVRQAPGKGLEWLGGFDPEDGKIIYAQKFQGRVTMTEDTSTDTAYMELSSLRSEDTAVYYCATSPAVVERGWFDPWGQGTLVTVSS
VL: QSALTQPPSASGSPGQSVTISCTGTSSDVGGYNYVSWYQQHPGKAPKLMIYEVSKRPSGVPDRFSGSKSGNMASLTVSGLQAEDEANYYCSSYAGSKRVFGGGTKLTVL
notes: human IgG1
B11: COV_2054 (antibody, V domains shown)
VH: EVQLVESGGGVLQPGRSLRLSCAASGFTFNNYALHWVRQAPGKGLEWVAVISYDGSSKYYADSVRGRLTISRDNSRNTLYLQMNSLRPEDTAIYYCARDGDGLWLGESFYFDDWGQGTLVTVSS
VL: DIQMTQSPSTLSASVGDRVIITCRASQSISSWLAWYQQKPGKAPKLLIYEASTLQSGVPSRFSGSGSGTEFTLTISSLQPDDSATYYCQQYNSYPVHFSQGTKLEIK
notes: human IgG1

For one assay, the target named is SARS-CoV-1 spike antigens (bead panel) (SARS-CoV-1, UniProt P59594 14-1195). The assay can be described thus: multiplex bead assay.
As for B1, the binding result was “no binding”.

As to B2, the binding result is “no binding”.

With B3, the binding result was “no binding”.

As for B4, the binding result was “no binding”.

With B5, the binding result is on record as “no binding”.

As to B6, the binding result is on record as “no binding”.

Regarding B7, the binding result was “no binding”.

Consider B8, for which the binding result was “no binding”.

On to B9, for which the binding result is on record as “no binding”.

With B10, the binding result is “no binding”.

B11: the binding result is given as “no binding”.

Another assay has as its target T1, HCoV-229E spike antigens (bead panel). The assay can be described thus: multiplex bead assay.
In the case of B1, the binding result was “no binding”.

As for B2, the binding result is given as “no binding”.

As to B3, the binding result is “no binding”.

Consider B4, for which the binding result is on record as “no binding”.

Turning to B5, the binding result is given as “no binding”.

For the molecule B6, the binding result is recorded as “no binding”.

For the molecule B7, the binding result is on record as “no binding”.

Consider B8, for which the binding result is “no binding”.

For the molecule B9, the binding result was “no binding”.

Turning to B10, the binding result is “no binding”.

Regarding B11, the binding result is listed as “no binding”.

A further assay deals with T2, HCoV-OC43 spike antigens (bead panel). The assay can be described thus: multiplex bead assay.
Turning to B1, the binding result is given as “no binding”.

Consider B2, for which the binding result is given as “no binding”.

Take B3: the binding result is “no binding”.

For the molecule B4, the binding result was “no binding”.

Take B5: the binding result is “no binding”.

Turning to B6, the binding result was “no binding”.

For the molecule B7, the binding result is on record as “no binding”.

Consider B8, for which the binding result was “no binding”.

With B9, the binding result is on record as “no binding”.

On to B10, for which the binding result is “no binding”.

In the case of B11, the binding result is reported as “no binding”.
